In article PMC12289019:

What was measured:
[1] = target: adeno-associated virus 2 (AAV2) capsid (adeno-associated virus 2)
[2] = target: adeno-associated virus 6 (AAV6) capsid (adeno-associated virus 6)
[3] = target: adeno-associated virus 2 (AAV2) capsid (adeno-associated virus 2); assay: SPR; AAV2 amine-coupled to a CM5 chip (9451 RU); HD5 or HNP1 as analyte; BIAcore X100, 25°C, PBS running buffer; 1:1 binding model for KD; stoichiometry by GraphPad Prism; 2 replicates; paper speaks of avidity
[4] = target: adeno-associated virus 2 (AAV2) capsid (adeno-associated virus 2); remark: listed apart in the source

Row | Substance | IC50 of inhibition of AAV2 binding to HeLa cells in the cold (qPCR of bound genomes) [1] | IC50 of inhibition of AAV2 infection of HeLa cells (GFP), defensin added post-attachment [1] | IC50 of inhibition of AAV6 binding to HeLa cells in the cold (qPCR of bound genomes); inhibition incomplete [2] | Kd [3] | stoichiometry N (molecules per capsid) [3] | IC50 of inhibition of AAV2 infection of HeLa cells (GFP), defensin incubated with virus pre-attachment [4]
1 | human defensin 5 (HD5) (peptide) | 9.2 µM | 4.4 µM | 41.6 µM | 0.57 µM | 385 | 
2 | human neutrophil peptide 1 (HNP1) |  | 6 µM |  | 0.32 µM | 227 | 9.7 µM
